B1: RILP: Rab7 effector, retrograde motor adaptor, overexpressed GFP-tagged from plasmid (protein, UniProt Q96NA2 1-401, looked up)
Rab-interacting lysosomal …: MEPRRAAPGVPGWGSREAAGSASAAELVYHLAGALGTELQDLARRFGPEAAAGLVPLVVRALELLEQAAVGPAPDSLQVSAQPAEQELRRLREENERLRRELRAGPQEERALLRQLKEVTDRQRDELRAHNRDLRQRGQETEALQEQLQRLLLVNAELRHKLAAMQTQLRAAQDRERERQQPGEAATPQAKERARGQAGRPGHQHGQEPEWATAGAGAPGNPEDPAEAAQQLGRPSEAGQCRFSREEFEQILQERNELKAKVFLLKEELAYFQRELLTDHRVPGLLLEAMKVAVRKQRKKIKAKMLGTPEEAESSEDEAGPWILLSDDKGDHPPPPESKIQSFFGLWYRGKAESSEDETSSPAPSKLGGEEEAQPQSPAPDPPCSALHEHLCLGASAAPEA
modifications: GFP tag
B2: Vps41: HOPS subunit overexpressed from plasmid (GFP-tagged) (protein)
chain: MAEAEEQETESLEESTDESEEESEEEPKLKYERLSNGVTEILQKDAASCMTVHDKFLALGTHYGKVYLLDVQGNITQKFDVSPVKINQISLDESGEHMGVCSEDGKLQVFGLYSGEEFHETFDCPIKIVAVHPQFVRSSCKQFVTGGKKLLLFERTWMNRWKSSVLHEGEGNIRSVKWRGHLIAWANNMGVKIFDITSKQRITNVPRDDISLRPDMYPCSLCWKDAVTLIIGWGTSIKICSVKERHASEMRDLPSRYVEIVSQFETEFYISGLAPLCDQLVVLSYVKEVSEKTEREYCARPRLDIIQPLPETCEEISSDALTVRGFQENECRDYHLEYSEGESLFYVVSPRDVVVAKERDQDDHIDWLLEKKKYEEALMAAEISHRNIKRHKILEIGLAYVNHLVERGEYDMAARKCQKILGKNASLWEYEVYKFKEIGQLKAISPYLPRGDPVLKPLIYEMILHEFLESDYEGFATLIREWPGDLYNNSVIVQAVRDHLKKDSQNKTLLKTLAELYTYDKNYGNALEIYLTLRHKDVFQLIHKHNLFSSIKDKIVLLMDFDSEKAVDMLLDNEDKISIKKVVEELEDRPELQHVYLHKLFKRDHHKGQRYHEKQISLYAEYDRPNLLPFLRDSTHCPLEKALEICQQRNFVEETVYLLSRMGNSRSALKMIMEELHDVDKAIEFAKEQDDGELWEDLILYSIDKPPFITGLLNNIGTHVDPILLIHRIKEGMEIPNLRDSLVKILQDYNLQILLREGCKKILVADSLSLLKKMHRTQMKGVLVDEENICESCLSPILPTDAAKPFSVVVFHCRHMFHKECLPMPSLNAPAQYCNICSAKNRGPGSAILEMKK
B3: FYCO1: Rab7 effector, anterograde motor adaptor, overexpressed GFP-tagged from plasmid (protein, UniProt Q9BQS8 2-1478, looked up)
FYVE and coiled-coil …: ASTNAESQLQRIIRDLQDAVTELSKEFQEAGEPITDDSTSLHKFSYKLEYLLQFDQKEKATLLGNKKDYWDYFCACLAKVKGANDGIRFVKSISELRTSLGKGRAFIRYSLVHQRLADTLQQCFMNTKVTSDWYYARSPFLQPKLSSDIVGQLYELTEVQFDLASRGFDLDAAWPTFARRTLTTGSSAYLWKPPSRSSSMSSLVSSYLQTQEMVSNFDLNSPLNNEALEGFDEMRLELDQLEVREKQLRERMQQLDRENQELRAAVSQQGEQLQTERERGRTAAEDNVRLTCLVAELQKQWEVTQATQNTVKELQTCLQGLELGAAEKEEDYHTALRRLESMLQPLAQELEATRDSLDKKNQHLASFPGWLAMAQQKADTASDTKGRQEPIPSDAAQEMQELGEKLQALERERTKVEEVNRQQSAQLEQLVKELQLKEDARASLERLVKEMAPLQEELSGKGQEADQLWRRLQELLAHTSSWEEELAELRREKKQQQEEKELLEQEVRSLTRQLQFLETQLAQVSQHVSDLEEQKKQLIQDKDHLSQQVGMLERLAGPPGPELPVAGEKNEALVPVNSSLQEAWGKPEEEQRGLQEAQLDDTKVQEGSQEEELRQANRELEKELQNVVGRNQLLEGKLQALQADYQALQQRESAIQGSLASLEAEQASIRHLGDQMEASLLAVRKAKEAMKAQMAEKEAILQSKEGECQQLREEVEQCQQLAEARHRELRALESQCQQQTQLIEVLTAEKGQQGVGPPTDNEARELAAQLALSQAQLEVHQGEVQRLQAQVVDLQAKMRAALDDQDKVQSQLSMAEAVLREHKTLVQQLKEQNEALNRAHVQELLQCSEREGALQEERADEAQQREEELRALQEELSQAKCSSEEAQLEHAELQEQLHRANTDTAELGIQVCALTVEKERVEEALACAVQELQDAKEAASREREGLERQVAGLQQEKESLQEKLKAAKAAAGSLPGLQAQLAQAEQRAQSLQEAAHQELNTLKFQLSAEIMDYQSRLKNAGEECKSLRGQLEEQGRQLQAAEEAVEKLKATQADMGEKLSCTSNHLAECQAAMLRKDKEGAALREDLERTQKELEKATTKIQEYYNKLCQEVTNRERNDQKMLADLDDLNRTKKYLEERLIELLRDKDALWQKSDALEFQQKLSAEERWLGDTEANHCLDCKREFSWMVRRHHCRICGRIFCYYCCNNYVLSKHGGKKERCCRACFQKLSEGPGSPDSSGSGTSQGEPSPALSPASPGPQATGGQGANTDYRPPDDAVFDIITDEELCQIQESGSSLPETPTETDSLDPNAAEQDTTSTSLTPEDTEDMPVGQDSEICLLKSGELMIKVPLTVDEIASFGEGSRELFVRSSTYSLIPITVAEAGLTISWVFSSDPKSISFSVVFQEAEDTPLDQCKVLIPTTRCNSHKENIQGQLKVRTPGIYMLIFDNTFSRFVSKKVFYHLTVDRPVIYDGSDFL
modifications: GFP tag

Tests used:
[1] = system: McA-RH7777 cells stably expressing human apoB-100 and human apoC-III (A18-C3); format: cell-based; settings: for effect on EPA-induced lipid degradation (CLD turnover): cells silenced, transfected or pre-treated, then EPA 0.4 mM, 6 h
Procedure: (§1) In certain non-limiting examples described herein, McA-RH7777 cells stably expressing human apoB-100 and human apoC-III (designated A18-C3) were used for the studies. […] In addition, these studies, particularly those concerning EPA- or DHA-triggered lysosomal motility and CLD degradation, were also performed using primary rat hepatocytes. Transfection of plasmids encoding proteins of interest, or transfection of siRNA specific for silencing target gene expression, was achieved using the FuGENE HP Extreme reagent (Roche). Representative gene silencing siRNA sequences, which are not meant to be limiting, are described in Table 1, and plasmids encoding proteins of interest are described in Table 2. The effectiveness of siRNA silencing was verified by Western-blotting of cellular content of the target proteins, and by intracellular localization assay using siRNA-Tracker (Mirus Bioscience). Twenty-four h after plasmid transfection, or 48 h after siRNA transfection, the cells were cultured in lipid-rich media containing fetal bovine serum (20%) and OA (0.4 mM). The lipid-laden cells were switched to fresh media supplemented with OA or EPA (0.4 mM). In live imaging experiments, LipidTOX Red (Life Technologies) and LysoTracker (Life Technologies) were added to media prior to EPA treatment, to visualize lipid droplets and lysosomes, respectively. For visualizing peroxisomes, Peroxisome-GFP (Invitrogen) was introduced to the cells 24 h prior to experiments. Quantification of cell lipid contents was achieved either by direct mass measurement (HPTLC) and counting the number of lipid droplets using Image J Lipid Droplet Counter Plug-In, or indirectly by Western blot analysis of cellular content of ADRP. Secretion of apoB and TG-rich lipoprotein was determined by Western blot analysis and metabolic labeling. Mitochondrial β-oxidation was measured using MitoSOX Red (Life Technologies) in situ. Autophagic flux was determined by using Cyto-ID assay (Enzo Life Science) and by monitoring GFP-LC3 clustering in situ. Interaction of Arl8b and subunits of the HOPS complex was determined in situ by the proximity ligation assay (Olink Biosience). Cytoplasmic pH was measured using the cytosolic pHrodo indicator reagent (Invitrogen). Live imaging of fluorescent-tagged proteins was performed 1 h post-EPA treatment. Cells were also collected at the time of EPA treatment for transmission EM and tomography, as well as immuno-EM. For movies, cells were imaged at 60 sec intervals every 5 min, for a total of 30 min.
The A18-C3 cells were cultured in DMEM (Invitrogen) supplemented with fetal bovine serum (20%), penicillin (50 U/mL), streptomycin (50 μg/mL, Invitrogen) and Geneticin/G418 (500 μg/mL, Gibco) at 37° C. in 5% CO2. Transfection was conducted when cells were 60-70% confluence. Appropriate plasmids were mixed with FuGENE HP extreme reagent (Roche Diagnostic), according to manufacturer's protocol, and incubated for 30 min. Twenty-four h after transfection, cells were switched to lipid-rich media containing OA (0.4 mM) for additional 16 h prior to imaging and biochemical analysis. In silencing experiments, appropriate siRNAs were transfected into cells using the X-treme GENE siRNA regent (Roche Diagnostic). Localization of siRNA in transfected cells in situ was carried out using the Cy5 Label IT-siRNA Tracker (Minis Bioscience #7213) according to manufacturer's protocol. Forty-eight h after transfection, cells were switched to lipid-rich media containing OA (0.4 mM) for additional 16 h prior to imaging and biochemical analysis.
Quantification of lipid droplets was carried out using confocal and differential interface contrast (DIC) microscopy. Lipid droplets were stained with LipidTOX Red (Invitrogen) before adding OA or EPA. All images were visualized using a 63× oil immersion objective lens. Z-series stacks were acquired with 0.2 μm steps. […]

[2] = system: McA-RH7777 cells (A18-C3); test: Live imaging of lysosomal motility and lysosome-CLD interaction (kiss-and-run); format: cell-based, rat; settings: cells silenced, transfected or pre-treated (15 min) before EPA
Procedure: as §1
Cells were grown on 35-mm glass bottom dishes (Ibidi GmbH München, Germany) for 16 h in DMEM supplemented with FBS (20%) and OA (0.4 mM). Cells were imaged using a Zeiss 510 META laser scanning confocal microscope with a heated CO2-controlled stage (5% CO2 at 37° C.). Images were captured at a frame-rate of 30 frame/sec using a 63×. N.A.1.4 objective. Recommended laser lines and filter combinations were used for each dye. For visualization of lipid droplets, lysosomes, mitochondria, and mitochondrial β-oxidation, the respective reagents LipidTOX Red (Invitrogen), LysoTracker (Life Technology), MitoTracker (Life Technology), MitoSox Red (Invitrogen), and Peroxisome-GFP BacMam2.0 (Invitrogen) were introduced into the cells, according to manufacturers' recommendations, prior to EPA treatment.
Cells were cultured with lipid-rich media containing OA (0.4 mM) for 16 h. The lipid-laden cells were switched to fresh media containing EPA (0.4 mM) for 1 h, and the lysosomal movement towards lipid droplets was recorded by time-lapse microscopy. Fluorescent intensity of lysosomal signals at the periphery of selected individual lipid droplet was measured using Image J Live Intensity Profiler Plug-in^31-33 over a period of 40 sec. Quantification for each condition was carried out for 60 individual lipid droplets from three independent experiments. Constant threshold was applied to all of the images in each experiment.

Molecule	effect on EPA-induced lipid degradation (CLD turnover) [1]	effect on EPA-triggered lysosomal motility / lysosomal interaction with CLD [2]	effect on lipid degradation when co-expressed with Arl8b^WT, Arl8b^Q75L or Arl8b^T34N ([1]; co-transfected cells, 6 h post-OA or -EPA)
Cl.N [NH4Cl, reference compound]	inhibited		
COC(=O)Nc1nc2ccc(C(=O)c3cccs3)cc2[nH]1 [nocodazole, reference compound]	blocked EPA-induced lipid degradation	blocks EPA-induced lysosomal movement	
CCC/C=C/C/C=C/C=C/C=N/NN=O [Triacsin C, reference compound]	inhibited EPA-induced lipid degradation	blocked	
B1	adversely blocked EPA-induced lipid degradation	blocks EPA-triggered lysosomal interaction with LDs	
B2	block lipid degradation	enhanced lysosomal-CLD interaction	invariably blocks lipid degradation
B3	adversely blocked EPA-induced lipid degradation	blocks EPA-triggered lysosomal interaction with LDs	

Source: US11298402B2, “Lysosomal degradation of lipids and proteins and method of use thereof” (University of Ottawa, priority 2015, dated 2022)
